Legend:
[1] = biological target: T1, full length serine hydroxymethyltransferase (SEQ ID NO: 74), c-Myc tagged at the C-terminus (Escherichia coli, UniProt A7ZPZ4 1-417); test: Western blot of c-Myc-tagged full-length SHMT expressed in E. coli (DH5α)
T1 construct: Expressed in Escherichia coli (DH5α); tested denatured in Western blotting of cell lysate; also called SHMT; full length: wild-type
T1 sequence: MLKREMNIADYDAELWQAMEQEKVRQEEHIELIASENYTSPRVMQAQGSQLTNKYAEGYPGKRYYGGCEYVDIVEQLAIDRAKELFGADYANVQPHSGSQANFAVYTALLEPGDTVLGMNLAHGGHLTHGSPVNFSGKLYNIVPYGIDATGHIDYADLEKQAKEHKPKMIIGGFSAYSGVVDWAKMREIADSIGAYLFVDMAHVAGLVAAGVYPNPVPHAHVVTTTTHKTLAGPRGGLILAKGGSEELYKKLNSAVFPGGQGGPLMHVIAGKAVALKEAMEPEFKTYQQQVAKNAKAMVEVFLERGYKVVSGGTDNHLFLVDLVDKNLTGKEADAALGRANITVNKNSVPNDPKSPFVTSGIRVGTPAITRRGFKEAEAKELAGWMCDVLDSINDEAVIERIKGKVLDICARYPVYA

[2] = biological target: T2, serine hydroxymethyltransferase Δ2-28 mutant (Escherichia coli, UniProt A7ZPZ4 29-417); test: Western blot of cell lysates (E. coli and 293T expression)
T2 construct: Expressed in Escherichia coli cells and 293T cells; tested in Western blotting of cell lysate; not shown: Myc-tag (40aa) at the C-terminus
T2 sequence: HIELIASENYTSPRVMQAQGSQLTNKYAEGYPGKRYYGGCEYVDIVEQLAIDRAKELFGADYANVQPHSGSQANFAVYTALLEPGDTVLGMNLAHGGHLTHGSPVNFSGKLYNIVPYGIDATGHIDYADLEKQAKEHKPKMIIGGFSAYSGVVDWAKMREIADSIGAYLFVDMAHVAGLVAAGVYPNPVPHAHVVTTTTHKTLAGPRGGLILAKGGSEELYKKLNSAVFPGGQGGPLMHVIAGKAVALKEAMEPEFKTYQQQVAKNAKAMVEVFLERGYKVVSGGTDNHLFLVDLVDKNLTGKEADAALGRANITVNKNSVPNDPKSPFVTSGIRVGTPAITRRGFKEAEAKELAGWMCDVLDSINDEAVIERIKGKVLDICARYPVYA

B1: W11 monoclonal IgA antibody (antibody, V domains shown)
VH: QVQLKQSGPGLVQPSQSLSITCTVSGFSLTNYGVHWIRQSPGKGLEWLGVIWSGGRIDYNAAFISRLNINKDNSKSQVFFKMNSLQTDDTAIYYCARTYDGYYFFQYWGQGTPLTVSS
VL: DVVMTQTPLSLPVSLGDEASISCRSSRSLIHSNGHTFLDWYLQKPGQSPKLLIYKVSNRFSGVPDRFSGSGSGTDFTLKISRVEAEDLGVYFCAQSTHAPLLTFGAGTKLELKR
notes: Mouse IgA from hybridoma
binding result [1]: binds

B2: W34 monoclonal IgA antibody (antibody, V domains shown)
VH: DVQLQESGPGMVKPSQSLSLTCTVTGYSITSGYDWHWIRHFPGNKLEWMGYISYSGSTDYNPALRSRISITRDTSTNHFFLKVNSVTTEDTATYYCARDGYGSNYVMAYWGQGTSVTVSS
VL: QIVLTQSPAIMSASPGEKVTITCSASSSVHYIHWFQLKPGTSPKLWIYSTSNLASGVPARFSGSGSGTSYSLTISRMEAEDAATYYCQQRSSYPLTFGAGTKLELKR
notes: Mouse IgA from hybridoma
binding result [1]: binds

B3: W27 monoclonal IgA antibody (antibody, V domains shown)
VH: EVQLQQSGSELVKSGASVKLSCTVSGFNFTDYYIHWVRQRTEQGLEWIGRIDPENDETTYAPKFQGKATMTADTSSNTAYLQLTSLTSEDTAVYYCARSTVLDYWGHGTTLTVSS
VL: DVLMTQTPLSLPVSLGDQASISCRASQSIVHTNGNTYLEWYLQKPGQSPKLLIYKVSNRFSGVPDRFSGSGSGTDFILKISRVEAEDLGVYYCFQGSHVPPTFGGGTKLEVKR
notes: Mouse IgA from a hybridoma of small-intestinal lamina propria B cells of wild-type C57BL/6 mice, partially purified
binding result [2]: no binding

From patent US20180009906A1 (CURED, published 2018)
